Laboratory results published in the supplement of paper PMC10567573.

B1: ATE1 (parent)
chain: YGSFHQQYWLDGKIIAVGVIDILP
B2: OAS1 (parent)
chain: LTVYAWERGSMKTHFNTAQGFRTV

Variants of: B1
Assay: protein stability index of a GFP-peptide fusion (GPS, HEK-293T) (PSI 1-6); higher = more stable
Conditions: c terminus: a fixed tail appended
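Further: lentivirally expressed fusions sorted by FACS into six bins by GFP to DsRed ratio, PSI derived from sequencing read proportions per bin multiplied by bin number.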

Protein stability index of substitutions, site by site:
G2: E 2.72 | L 1.66 | I 3.05 | N 4.75 | S 1.91 | Y 3.14 | M 2.57 | K 2.49 | P 3.53 | C 2.8 | Q 2.66 | R 3.47 | T 4.66 | H 2.47 | D 2.58
F4: W 2.2 | D 2.95 | Y 4.54 | E 3.75 | Q 2.72 | N 3.28 | I 2.92 | H 2.83 | S 3.69 | P 1.93 | V 1.4 | M 2.76
Y1: C 3.63 | M 1.87 | F 3.22 | K 3.54 | E 1.92 | L 1.73 | S 4.07 | H 2.79 | N 1.77
H5: A 2.77 | F 2.61 | D 4.47 | Q 2.37 | M 1.77 | I 1.49 | P 2.32 | R 2.13
S3: H 2.96 | R 2.02 | V 3.33 | W 2.82 | E 1.34 | T 2.22 | D 4.93 | K 2.55 | P 2.19 | Y 2.74 | I 3.48

Variants of: B2
Assay: as above
Conditions: c terminus: a fixed tail appended

Protein stability index, by site and new letter:
T23: H 3.17 | F 2.29 | Q 1.9 | I 2.69 | P 2.61 | G 2.76 | K 2.39 | R 1.4 | M 3.15 | S 2.78 | N 3.21 | Y 1.32 | A 1.8 | D 3.86 | L 2.25
F21: T 1.96 | K 2.27 | M 1.9 | S 2.42 | V 1.82 | N 2.87 | E 2.1 | P 2.33 | L 2.67 | Q 1.65 | R 1.82 | D 2.09 | A 1.9 | Y 2.9 | G 1.4 | C 2.35 | I 2.09 | W 2.21 | H 1.74
V24: S 3.01 | P 2.64 | Y 2.51 | A 2.04 | G 1.73 | Q 2.06 | R 1.69 | K 1.71 | C 2.83 | M 1.96 | H 1.61 | I 3.42 | F 2.35 | E 2.51 | L 1.68 | D 1.63 | T 1.8 | N 2.84
G20: L 3.19 | D 2.18 | A 2.49 | R 3.81 | S 3.02 | K 1.61 | V 2.89 | Y 3.45 | I 3 | W 1.9 | Q 2.14 | P 2.25 | T 2.89 | F 2.39 | E 3.23 | N 2.19 | H 2.56 | C 2.06
A18: R 2.84 | Q 2.79 | V 3.42 | T 2.39 | S 1.2 | W 2.73 | Y 4.24
R22: A 3.1 | Y 3.17 | I 1.73 | D 2.38 | E 2.82 | W 1.93 | F 1.87 | H 3.33 | M 2.53 | P 3.8 | K 1.71 | T 2.44 | N 2.38 | V 2.33 | G 1.45 | L 3.28
Q19: G 2.64 | W 1.62 | T 2.88 | H 2.65 | A 2.23 | M 3.27 | N 2.92 | P 3.02 | C 3.17 | I 3.54 | R 2.22 | E 2.52 | K 2.43 | F 3.35 | V 3.84 | D 4.39 | Y 3.25 | S 2.63 | L 3.4
